B1: OR4K15 (parent)
chain: GUUAACGGUCAUAGGCCAUGGAAACUAGGAGCACCAUUUCGCUGCCAGUGAAGAAAUGAACAAAGAAAAUCUGGGCCAGGCAGGCAUCAAAAGAAAUAGUCUUGCGCUCAACCAGAAAGUCUGUAAUCAUUUUAAGGGUA

Variants of: B1
Assay: self-cleavage, relative activity (ratio to wild type); higher = more cleavage; in vitro, sequencing; the parent is a self-cleaving ribozyme
Work on GUUAACGGUCAUAGGCCAUGGAAACUAGGAGCACCAUUUCGCUGCCAGUGAAGAAAUGAACAAAGAAAAUCUGGGCCAGGCAGGCUUCAAAAGAAAUAGUCUUGCGCUCAACCAGAAAGUCUGUAAUCGUUUUAAGGGUA yielded a self-cleavage of 2.26.
Work on GUUAACGGUCAUAGGCCAUGGAAACUAGGAGCACCAUUUCGCUGCCAGUGAAGAAAUGAACAAAGAAAAUCUGGGCCAGGCAGGCAUCAAAAGAAAUAGUCUUGCGCUCAACCAGAAAGUCUGUGAUCAUUUUAUGGGUA yielded a self-cleavage of 0.54.
GUUAGCGGUCAUAGGCCAUGGAAACUAGGUGCACCAUUUCGCUGCCAGUGAAGAAAUGAACAAAGAAAAUCUGGGCCAGGCAGGCAUCAAAAGAAAUAGUCUUGCGCUCAACCAGAAAGUCUGUAAUCAUUUUAAGGGUA gave a self-cleavage of 1.14.
With GUUAACGGUCAUAGGCCAUGGAAACUAGGAGCACCACUUCGCUGCCAGUGAAGAAAUGAACAAAGAAAAUCUGGGCCUGGCAGGCAUCAAAAGAAAUAGUCUUGCGCUCAACCAGAAAGUCUGUAAUCAUUUUAAGGGUA the self-cleavage was 0.32.
In the case of GUUAACGGUCAUAGGCCAUGGAAACUAGGAGCACCAUUUCGCUGCCCGUGAAGAAAUGAACAAAGAAAAUCUGGGCCAGGCAGGCAUCAAAAGAAAUAGUCUUGCGCUCAACCAGGAAGUCUGUAAUCAUUUUAAGGGUA, the self-cleavage is reported as 1.3.
Work on GUUAACGGUCAUAGGCCAUGGAAACUAGGAGCACCUUUUCGCUGCCAGUGAAGAAAUGAACAAAGAAAAUCUGGGCCAGGCAGGCAUCAAAAGAAAUAGUCUUGCGCUCAACCAGUAAGUCUGUAAUCAUUUUAAGGGUA yielded a self-cleavage of 0.5.
GUUAACGGUCAUAGGCCAUGGAAACUAGGUGCACCAUUUCGCUGCCAGAGAAGAAAUGAACAAAGAAAAUCUGGGCCAGGCAGGCAUCAAAAGAAAUAGUCUUGCGCUCAACCAGAAAGUCUGUAAUCAUUUUAAGGGUA gave a self-cleavage of 1.3.
GUUAACGGUCAUGGGCCAUGGAAACUAGGAGCACCAUUUCGCUGCCAGUGAAGAAAUGAACAAAGAAAAUCUGGGCCAGGCAGGCAUCAAAAGAAAUAGUCUUGCGCUCAACCAGAAAGUCAGUAAUCAUUUUAAGGGUA showed a self-cleavage of 0.97.
Work on GUUAACGGUCAUAGGCCAUGGAAACUAGGAGCACCAUUUCGCUGUCAGUGAAGAAAUGAACAAAGAAAAUCUGGGCCAGGCAGGCAUCAAAAGAAAUAGUCUCGCGCUCAACCAGAAAGUCUGUAAUCAUUUUAAGGGUA yielded a self-cleavage of 0.54.
Variant GUUAACGGUCAUAGGCCAUGGAAACUAGGAGCACCAUUCCGCUGCCAGUGAAGAAAUGAACAAAGAAAAUCUGGGCCAGGCAGGCAUCAAAAGAAAUAGUCUUGCGCUCAACCAGAAAGUCUGUAAUCAUUUUAGGGGUA has a self-cleavage of 1.82.
GUUAACGGACAUAGGCCGUGGAAACUAGGAGCACCAUUUCGCUGCCAGUGAAGAAAUGAACAAAGAAAAUCUGGGCCAGGCAGGCAUCAAAAGAAAUAGUCUUGCGCUCAACCAGAAAGUCUGUAAUCAUUUUAAGGGUA gave a self-cleavage of 1.79.
In the case of GUUAACGGUCAUAGGCCAUGGAGACUAGGAGCACCAUUUCGCUGCCAGUGAAGAAAUGAACAAAGAAAAUCUGGGCCAGGCAGGCAUCAAAAGAAAUAGUCUUGCGCUCAACCAGAGAGUCUGUAAUCAUUUUAAGGGUA, the self-cleavage is reported as 1.2.
In the case of GUUAACGGUCAUAGGCCUUGGAAACUAGGAGCACCAUUUCGCUGCCAGUGAAGAAAUGAACAAAGAAAAUCUGGGCCAGGCAGGCAUCAAAAGAAAUCGUCUUGCGCUCAACCAGAAAGUCUGUAAUCAUUUUAAGGGUA, the self-cleavage is reported as 1.13.
With GUUAACGGUCAUAGGCCAUGGAAACUAGGAGCACCAUUUCGCUGCCAGUGAAGAAAUGAACAAAGAAAAUCUGGGCCAGGCAGGCAUCAAAAGAAAUAGUCUUGCACCCAACCAGAAAGUCUGUAAUCAUUUUAAGGGUA the self-cleavage was 0.
Variant GUUAACGGUCAUAGGCCAUGGAAACUAGGAGCACCAUUUCGCUGCCAGUGAAGAAAUGAACAAAGGAAAUCUGGGCCAGGCAGGCAUCAAAGGAAAUAGUCUUGCGCUCAACCAGAAAGUCUGUAAUCAUUUUAAGGGUA has a self-cleavage of 0.74.
GUUAACGGUCAUAGGCCAUGGAAACUAGGAGCACCAUUUCGCUGCCAGUGAAGAAAUGAACAAAGAAAAUCUGGGCCAGGCUGGCAUCAAAAGAAAUAGUCUUGCGCUCAACCAGAAAGUCUGUGAUCAUUUUAAGGGUA gave a self-cleavage of 0.03.
For GUUAACGGUCAUAGGCCAUGGAAACCAGGAGCACCAUUUCGCUGCCAGUGAAGAAAUGAACAAAGAAAAUCUGGGCCAGGCAGGCAUCAAAAGAAAUAGUCUUGCGCUCAACCUGAAAGUCUGUAAUCAUUUUAAGGGUA, the self-cleavage was 0.07.
GUUAACGGUCAUAGGCCAUGGAAACUAGGAGCACCAUUUCGCUGCCAGUGAAGAAAUGAACAAAGAGACUCUGGGCCAGGCAGGCAUCAAAAGAAAUAGUCUUGCGCUCAACCAGAAAGUCUGUAAUCAUUUUAAGGGUA showed a self-cleavage of 1.68.
GUUAACGGUCAUAGGCCAUGGAAACUAGGAGCACCAUUUCGCUGCCAGUGAAGAAAUGAACAAAGAAAAUCUGGGCCAGGCAGGCAUCAAAAGAAAUAGUCUUGCGCUCGACCUGAAAGUCUGUAAUCAUUUUAAGGGUA showed a self-cleavage of 0.03.
GUUUACGGUCAUAGGCCAUGGAAACUAGGAGCACCAUUUCGCUGCCAGUGAAGAAAAGAACAAAGAAAAUCUGGGCCAGGCAGGCAUCAAAAGAAAUAGUCUUGCGCUCAACCAGAAAGUCUGUAAUCAUUUUAAGGGUA gave a self-cleavage of 1.53.
GUUAACGGUCAUAGGCCAUGGAAACUAGGAGCACCUUUUCGCUGCCAGUGAAGAAAUGAACAAAGAAAAUCUGGGCCAGGCAGGCAUCGAAAGAAAUAGUCUUGCGCUCAACCAGAAAGUCUGUAAUCAUUUUAAGGGUA showed a self-cleavage of 1.41.
In the case of GUUAACGGUCAUAGGCCAUGGAAACUAGGAGCACCAUUUCGCUGCCAGUGAAGAUAUGAACAAAGAAAAUCUGGGCCAGGCAGGCAUCAAAAGAAAUAGUCCUGCGCUCAACCAGAAAGUCUGUAAUCAUUUUAAGGGUA, the self-cleavage is reported as 1.73.
In the case of GUUUACGGUCAUAGGCCAUGGAAACUAGGAGCACCAUUUCGCUGCCAGUGAAGAAAUGAACAAAGAAAAUCUGGGCCAGGCAGGCAUCAAAAGAAAUAGUCUUGCGCUCAACCAGAAAGUCUGUAAUCAUUUUAAGGGUG, the self-cleavage is reported as 1.16.
GUUAACGGUCAUAGGCCAUGGAAACUAGGAGCACCAUUUCGCUACCAGUGAAGAAAUGAACAAAGAAAAUCUGGGCCAGGCAGGCAUCAAAAGAAAUAGUCUUGCGCUCAACCAGAAAGUCUGUAAUCAUUUUUAGGGUA showed a self-cleavage of 0.73.
GUUAACGGUCAUAGGCCAUGGAAACUAGGAGCACCAUUUCGCUGCCCGUGAAGAAAUGAACAAAGAAAAUCUGAGCCAGGCAGGCAUCAAAAGAAAUAGUCUUGCGCUCAACCAGAAAGUCUGUAAUCAUUUUAAGGGUA showed a self-cleavage of 0.17.
Work on GUUAUCGGUCAUAGGCCAUGGAAACUAGGAGCACCAUUUCGCUGCCAGUGAAGAAAUGAACAAAGAAAAUCUGGGCCAGGCAGGCAUCAAAAGAAAUAGUCUUGCGCUCAACCAGAAAGUCUGUAAUCACUUUAAGGGUA yielded a self-cleavage of 0.85.
For GUUAACGGUCAUAGGCCAUGGAAACUAGGAGCACCAUUUCGCUGCCAGUGACGAAAUGAACAAAGAAAAUCUGGGCCAGGCAGGCAUCAGAAGAAAUAGUCUUGCGCUCAACCAGAAAGUCUGUAAUCAUUUUAAGGGUA, the self-cleavage was 0.58.
GUUAUCGGUCAUAGGCCAUGGAAACUAGGAGCACCAUCUCGCUGCCAGUGAAGAAAUGAACAAAGAAAAUCUGGGCCAGGCAGGCAUCAAAAGAAAUAGUCUUGCGCUCAACCAGAAAGUCUGUAAUCAUUUUAAGGGUA gave a self-cleavage of 1.27.
Work on GUUAACGGUCAUAGGCCAUGCAAACUAGGAGCACCAUUUCGCUGCCAGUGAAGAAAUGAACAAAGAAAAUCUGGGCCAGGCAGGCAUCAAAAGAAAUAGUCUUGCGCCCAACCAGAAAGUCUGUAAUCAUUUUAAGGGUA yielded a self-cleavage of 0.02.
GUUAACGGUCAUAGGCCAUGGAAACUAGGAGCACCAUUUCGCUGCCAGUGAAGAAAUGAACAAAGAAAAUCUGGGCCAGGCAGGCAUCAAAAGAAAUAGUCUUGCGCACAACCAGAAAGUCUGUAACCAUUUUAAGGGUA gave a self-cleavage of 0.
For GUUAGCGGUCAUAGGCCAUGGAAACUAGGAGCACCAUUUCGCUGCCAGUGAAGAAAUGAACAAAGAAAAUCUGGGCCAGGCAGGCAUCACAAGAAAUAGUCUUGCGCUCAACCAGAAAGUCUGUAAUCAUUUUAAGGGUA, the self-cleavage was 1.08.
In the case of GUUAACGGUCAUAGGCCAUGGAAACUAGGAGCUCCAUUUCGCUGCCUGUGAAGAAAUGAACAAAGAAAAUCUGGGCCAGGCAGGCAUCAAAAGAAAUAGUCUUGCGCUCAACCAGAAAGUCUGUAAUCAUUUUAAGGGUA, the self-cleavage is reported as 0.84.
In the case of GUUAACGGUCAUAGGCCAUGGAAACUAGGAGCACCAUUUCGCUGCCAGCGAAGAAAUGAACAAAGAAAAUCUGGGCCAAGCAGGCAUCAAAAGAAAUAGUCUUGCGCUCAACCAGAAAGUCUGUAAUCAUUUUAAGGGUA, the self-cleavage is reported as 0.13.
With GUUAACGGUCAUAGGCCAUGGAAACUAGGAGCACCAUUUCGCUGCCAGUGAAGAAAUGAACAAAGAAAAUCUGGGCCAGGCAGGCAUCAAAAGAAAUCGUCUUGCGCUCAACCAGAAAGUCUGUAAUCAUUUUAAGGGUA the self-cleavage was 0.96.
In the case of GUUAACGGUCAUAGGCCAUGGAAACUAGGAGCACCAUCUCGCUGCCAGUGAAGAAAUGAACAAAGAAAAUCUGGGCCAGGCAGGCAUCAAAAGAAAUAGUCUUGCGCUCAACCGGAAAGUCUGUAAUCAUUUUAAGGGUA, the self-cleavage is reported as 0.75.
GUUAACGGUCAUAGGCCAUGGAACCUAGGAGCACCAUUUCGCUGCCAGUGAAGAAAUGAACAAAGAAAAUCUGGGCCAGGCAGGCAUCAAAAGAAAUAGUCUUGCGCUCAACCGGAAAGUCUGUAAUCAUUUUAAGGGUA gave a self-cleavage of 0.97.
In the case of GUUAACGGUCAUAGGCCAUGGAAACUAGGAGCAUCAUUUCGCUGCCAGUGAAGAAAUGAACAAAGAAAAUCUGGGCCAGGCAGGCAUCAAAAGAAAUAGUCUUGCGCUCAACCAGAAAGUCUGUGAUCAUUUUAAGGGUA, the self-cleavage is reported as 0.63.
For GUUAACGGUCAUAGGCCAUGGAGACUAGGAGCACCAUUUCGCUGCCAGUGAAGAAAUGAACAAAGAAAAUCUGGGCCAGGCGGGCAUCAAAAGAAAUAGUCUUGCGCUCAACCAGAAAGUCUGUAAUCAUUUUAAGGGUA, the self-cleavage was 0.57.
Work on GUUAACGGUCAUAGGCCAUGGAAACUAGGAGCACCAUUCCGCUGCCAGUGAAGAAAUGAACAAAGAAAAUCUGGGCCAGGCAGGCAUCAAAUGAAAUAGUCUUGCGCUCAACCAGAAAGUCUGUAAUCAUUUUAAGGGUA yielded a self-cleavage of 1.99.
In the case of GUUAACGGUCAUAGGCCAUGGAAACUAGGAGCACCAUUUCGCUGCCAGUGAAGAAAUGAACAAAGAAAAUCUGGGCCAGGCAGGCAUCAAGAGAAAUAGUCUUGCGCUCAACCAGAAAGUCUGUAAACAUUUUAAGGGUA, the self-cleavage is reported as 2.67.
With GUUAACGGUCAUAGGCCAUGGAAACUAGGAGCACCAUUCCGCUGCCAGUGAAGAAAUGAACAAAGAAAAUCUGGGCCAGGCAGGCAUCAAAAGAAAUAGUCUUGCGCUCAACCAGAAAGUUUGUAAUCAUUUUAAGGGUA the self-cleavage was 2.87.
